Here are results for four molecules from article PMC11929908 (Nature Communications, 2025).

Series [1] deals with PsiD R135A/Q136A (Psilocybe cubensis) (UniProt P0DPA6). The series is described as follows: SEC. On the technique in general: In gel filtration, larger molecules generally elute earlier.
Series [2] deals with the molecule itself. The series is described as follows: SEC.
Series [3] concerns the molecule itself. Put plainly: crystal structure.
Series [4] deals with the molecule itself. The series is described as follows: crystal structure. The source holds these as a separate data set.

The stoichiometry N is a count of units in the complex or per binding partner. With “PsiD R135A/Q136A (from UniProt P0DPA6 1-402) (enzyme)”, the stoichiometry N in series [1] turned out to be 2.

B1: PsiD (1–439) S403A (enzyme, Psilocybe cubensis, UniProt P0DPA6 1-439, looked up)
chain: MQVIPACNSAAIRSLCPTPESLRNMGWLSVSDAVYSEFIGELATRASNRNYSNEFGLMQPIQEFKAFIESDPVVHQEFIDMFEGIQDSPRNYQELCNMFNDIFRKAPVYGDLGPPVYMIMAKLMNTRAGFSAFTRQRLNLHFKKLFDTWGLFLSSKDSRNVLVADQFDDRHCGWLNERALSAMVKHYNGRAFDEVFLCDKNAPYYGFNSYDDFFNRRFRNRDIDRPVVGGVNNTTLISAACESLSYNVSYDVQSLDTLVFKGETYSLKHLLNNDPFTPQFEHGSILQGFLNVTAYHRWHAPVNGTIVKIINVPGTYFAQAPSTIGDPIPDNDYDPPPYLKSLVYFSNIAARQIMFIEADNKEIGLIFLVFIGMTEISTCEATVSEGQHVNRGDDLGMFHFGGASFALGLRKDCRAEIVEKFTEPGTVIRINEVVAALKA
For the molecule B1, the “stoichiometry N” value in series [2] was determined as 2.

B2: L-tryptophan decarboxylase PsiD, full-length (1–439), wildtype, self-cleaved mature enzyme (enzyme, Psilocybe cubensis)
chain 1: MQVIPACNSAAIRSLCPTPESLRNMGWLSVSDAVYSEFIGELATRASNRNYSNEFGLMQPIQEFKAFIESDPVVHQEFIDMFEGIQDSPRNYQELCNMFNDIFRKAPVYGDLGPPVYMIMAKLMNTRAGFSAFTRQRLNLHFKKLFDTWGLFLSSKDSRNVLVADQFDDRHCGWLNERALSAMVKHYNGRAFDEVFLCDKNAPYYGFNSYDDFFNRRFRNRDIDRPVVGGVNNTTLISAACESLSYNVSYDVQSLDTLVFKGETYSLKHLLNNDPFTPQFEHGSILQGFLNVTAYHRWHAPVNGTIVKIINVPGTYFAQAPSTIGDPIPDNDYDPPPYLKSLVYFSNIAARQIMFIEADNKEIGLIFLVFIGMTEISTCEATVSEGQHVNRGDDLGMFHFGG
chain 2: SSFALGLRKDCRAEIVEKFTEPGTVIRINEVVAALKA
modifications: pyruvoyl prosthetic group at 403 (Pvl403, formed from Ser403)
As for B2, the “stoichiometry N” value in series [3] was 2.

B3: PsiD (50–439), self-cleaved, co-crystallised with L-tryptophan (domain or fragment, Psilocybe cubensis)
chain 1: NYSNEFGLMQPIQEFKAFIESDPVVHQEFIDMFEGIQDSPRNYQELCNMFNDIFRKAPVYGDLGPPVYMIMAKLMNTRAGFSAFTRQRLNLHFKKLFDTWGLFLSSKDSRNVLVADQFDDRHCGWLNERALSAMVKHYNGRAFDEVFLCDKNAPYYGFNSYDDFFNRRFRNRDIDRPVVGGVNNTTLISAACESLSYNVSYDVQSLDTLVFKGETYSLKHLLNNDPFTPQFEHGSILQGFLNVTAYHRWHAPVNGTIVKIINVPGTYFAQAPSTIGDPIPDNDYDPPPYLKSLVYFSNIAARQIMFIEADNKEIGLIFLVFIGMTEISTCEATVSEGQHVNRGDDLGMFHFGG
chain 2: B2 chain 2
modifications: pyruvoyl prosthetic group at 403 (Pvl403, formed from Ser403)
In the case of B3, the “stoichiometry N” value in series [4] was 2.
